Measurements from patent US20060240516A1 (ECOLE NORMALE SUPERIEURE DE LYON, published 2006).

What was measured:
[1] = target: T1, LexA alone (bait control) (UniProt P0A7C2 1-202); assay: two-hybrid test in HeLa cells, SEAP reporter
T1 construct: also called pLex9
T1 sequence: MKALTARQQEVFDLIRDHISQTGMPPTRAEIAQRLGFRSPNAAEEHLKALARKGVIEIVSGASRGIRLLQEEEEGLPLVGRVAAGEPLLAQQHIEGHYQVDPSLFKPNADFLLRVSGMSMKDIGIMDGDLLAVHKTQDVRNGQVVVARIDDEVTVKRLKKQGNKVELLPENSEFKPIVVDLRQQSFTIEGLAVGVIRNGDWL

Rev protein of HIV-1 = target: T2, Rev protein of HIV-1 (HIV-1, UniProt P04618 1-116); assay: gel retardation of the Rev-RRE RNA complex
T2 construct: also called pSG-Rev
T2 sequence: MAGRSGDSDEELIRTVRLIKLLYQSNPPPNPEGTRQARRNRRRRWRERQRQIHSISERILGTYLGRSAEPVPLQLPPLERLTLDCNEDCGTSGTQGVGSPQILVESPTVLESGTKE

[2] = target: T3, GST-Rev fusion protein produced in bacteria (HIV-1, UniProt P04618 1-116); assay: GST-Rev on glutathione-agarose column, elution with glutathione, immunoblot against FLAG
T3 construct: also called GXT-Rev
T3 sequence: T2 sequence

[3] = target: T1, LexA alone (bait control); assay: yeast two-hybrid, beta-galactosidase filter test; W = white after 6 h

Binder: ITRRIEMPGRDIPGVDGSILRGCWDPGRKKRRQRRRG (designed binder) [Mammalian prey FLAG-NLS-Vp16 activation domain-heptapeptide-Tat PTD, pSG-FNV-P-T9]
- binding result [1]: no binding

B1: SHPT-8 produced in bacteria (N-terminal FLAG epitope), purified (designed binder)
chain: MSDQEAKPSTEDLGDKKEGEYIKLKVIGQDSSEIHFKVKMTTHLKKLKESYCQRQGVPMNSLRFLFEGQRIADNHTPKELGMEEEDVIEVYQEQTARPPNPKKEIELGGGGSFTMRGVDPGRKKRRQRRRG
notes: also called pFLAG-SUMO-1-P 8
- binding result (Rev protein of HIV-1): no binding
- binding result [2]: no binding

Binder: GGGGSITRRIEMPGRDIPGVDGSILRGCWDPGRKKRRQRRRG (designed binder) [Yeast prey GAL4 activation domain-heptapeptide-Tat PTD, clone 9 (LexTat screening)]
- binding result [3]: no binding
